In the assay the target is EV-A71 2C protein (analyte of the SPR assay) (Enterovirus A71 (strain ), UniProt Q66478 1112-1440). Briefly: SPR. (In SPR one partner is held on a chip, and binding of the other changes the refractive index at the surface.)

B1: UBE3C protein (TP315110, ORIGENE) (enzyme)
chain: MFSFEGDFKTRPKVSLGGASRKEEKASLLHRTQEERRKREEERRRLKNAIIIQSFIRGYRDRKQQYSIQRSAFDRCATLSQSGGAFPIANGPNLTLLVRQLLFFYKQNEDSKRLIWLYQNLIKHSSLFVKQLDGSERLTCLFQIKRLMSLCCRLLQNCNDDSLNVALPMRMLEVFSSENTYLPVLQDASYVVSVIEQILHYMIHNGYYRSLYLLINSKLPSSIEYSDLSRVPIAKILLENVLKPLHFTYNSCPEGARQQVFTAFTEEFLAAPFTDQIFHFIIPALADAQTVFPYEPFLNALLLIESRCSRKSGGAPWLFYFVLTVGENYLGALSEEGLLVYLRVLQTFLSQLPVSPASASCHDSASDSEEESEEADKPSSPEDGRLSVSYITEECLKKLDTKQQTNTLLNLVWRDSASEEVFTTMASVCHTLMVQHRMMVPKVRLLYSLAFNARFLRHLWFLISSMSTRMITGSMVPLLQVISRGSPMSFEDSSRIIPLFYLFSSLFSHSLISIHDNEFFGDPIEVVGQRQSSMMPFTLEELIMLSRCLRDACLGIIKLAYPETKPEVREEYITAFQSIGVTTSSEMQQCIQMEQKRWIQLFKVITNLVKMLKSRDTRRNFCPPNHWLSEQEDIKADKVTQLYVPASRHVWRFRRMGRIGPLQSTLDVGLESPPLSVSEERQLAVLTELPFVVPFEERVKIFQRLIYADKQEVQGDGPFLDGINVTIRRNYIYEDAYDKLSPENEPDLKKRIRVHLLNAHGLDEAGIDGGGIFREFLNELLKSGFNPNQGFFKTTNEGLLYPNPAAQMLVGDSFARHYYFLGRMLGKALYENMLVELPFAGFFLSKLLGTSADVDIHHLASLDPEVYKNLLFLKSYEDDVEELGLNFTVVNNDLGEAQVVELKFGGKDIPVTSANRIAYIHLVADYRLNRQIRQHCLAFRQGLANVVSLEWLRMFDQQEIQVLISGAQVPISLEDLKSFTNYSGGYSADHPVIKVFWRVVEGFTDEEKRKLLKFVTSCSRPPLLGFKELYPAFCIHNGGSDLERLPTASTCMNLLKLPEFYDETLLRSKLLYAIECAAGFELS
In general, Kd refers to the constant that tells how readily two partners part at equilibrium. Higher therefore signals lower affinity. Consider B1, for which the Kd was 72.1 µM.

The record behind these values is publication PMC11494953 (2024).
